{"source": "paper PMC4513230", "about": "(2015)", "molecules": {"B1": {"name": "eIF2∙GTP∙Met-tRNAi ternary complex (TC), wild-type eIF2 (complex)", "chain 1": "MSTSHCRFYENKYPEIDDIVMVNVQQIAEMGAYVKLLEYDNIEGMILLSELSRRRIRSIQKLIRVGKNDVAVVLRVDKEKGYIDLSKRRVSSEDIIKCEEKYQKSKTVHSILRYCAEKFQIPLEELYKTIAWPLSRKFGHAYEAFKLSIIDETVWEGIEPPSKDVLDELKNYISKRLTPQAVKIRADVEVSCFSYEGIDAIKDALKSAEDMSTEQMQVKVKLVAAPLYVLTTQALDKQKGIEQLESAIEKITEVITKYGGVCNITMPPKAVTATEDAELQALLESKELDNRSDSEDDEDESDDE", "chain 2": "MSSDLAAELGFDPALKKKKKTKKVIPDDFDAAVNGKENGSGDDLFAGLKKKKKKSKSVSADAEAEKEPTDDIAEALGELSLKKKKKKTKDSSVDAFEKELAKAGLDNVDAESKEGTPSANSSIQQEVGLPYSELLSRFFNILRTNNPELAGDRSGPKFRIPPPVCLRDGKKTIFSNIQDIAEKLHRSPEHLIQYLFAELGTSGSVDGQKRLVIKGKFQSKQMENVLRRYILEYVTCKTCKSINTELKREQSNRLFFMVCKSCGSTRSVSSIKTGFQATVGKRRRM", "chain 3": "MSDLQDQEPSIIINGNLEPVGEPDIVEETEVVAQETQETQDADKPKKKVAFTGLEEDGETEEEKRKREFEEGGGLPEQPLNPDFSKLNPLSAEIINRQATINIGTIGHVAHGKSTVVRAISGVQTVRFKDELERNITIKLGYANAKIYKCQEPTCPEPDCYRSFKSDKEISPKCQRPGCPGRYKLVRHVSFVDCPGHDILMSTMLSGAAVMDAALLLIAGNESCPQPQTSEHLAAIEIMKLKHVIILQNKVDLMREESALEHQKSILKFIRGTIADGAPIVPISAQLKYNIDAVNEFIVKTIPVPPRDFMISPRLIVIRSFDVNKPGAEIEDLKGGVAGGSILNGVFKLGDEIEIRPGIVTKDDKGKIQCKPIFSNIVSLFAEQNDLKFAVPGGLIGVGTKVDPTLCRADRLVGQVVGAKGHLPNIYTDIEINYFLLRRLLGVKTDGQKQAKVRKLEPNEVLMVNIGSTATGARVVAVKADMARLQLTSPACTEINEKIALSRRIEKHWRLIGWATIKKGTTLEPIA"}}, "key": {"[1]": {"test_system": "40S ribosomal subunit, Rps5-E144R;eIF1;eIF1A;eIF2 WT", "assay": "EMSA (native gel)", "details": "methionylated; T7 transcript; 30 mM Hepes-KOH pH 7.4, 100 mM KOAc, 3 mM Mg(OAc)2, 2 mM DTT, 26°C; 1 nM [35S]-Met-tRNAi, 200-250 nM eIF2, 1 uM eIF1 and eIF1A, 100 uM GDPNP (Kd assays), mRNA …"}, "[2]": {"test_system": "40S ribosomal subunit, Rps5-R148E;eIF1;eIF1A;eIF2 WT", "assay": "EMSA (native gel)", "details": "methionylated; T7 transcript; 30 mM Hepes-KOH pH 7.4, 100 mM KOAc, 3 mM Mg(OAc)2, 2 mM DTT, 26°C; 1 nM [35S]-Met-tRNAi, 200-250 nM eIF2, 1 uM eIF1 and eIF1A, 100 uM GDPNP (Kd assays), mRNA …"}, "[3]": {"test_system": "40S ribosomal subunit, WT Rps5;eIF1;eIF1A;eIF2 WT", "assay": "EMSA (native gel)", "details": "methionylated; T7 transcript; 30 mM Hepes-KOH pH 7.4, 100 mM KOAc, 3 mM Mg(OAc)2, 2 mM DTT, 26°C; 1 nM [35S]-Met-tRNAi, 200-250 nM eIF2, 1 uM eIF1 and eIF1A, 100 uM GDPNP (Kd assays), mRNA …"}, "[4]": {"test_system": "40S ribosomal subunit, Rps5-R148E;eIF1;eIF1A;eIF2 WT", "assay": "EMSA kinetics (dissociation)", "details": "methionylated; T7 transcript; 30 mM Hepes-KOH pH 7.4, 100 mM KOAc, 3 mM Mg(OAc)2, 2 mM DTT, 26°C; 1 nM [35S]-Met-tRNAi, 200-250 nM eIF2, 1 uM eIF1 and eIF1A, 100 uM GDPNP (Kd assays), mRNA …"}, "[5]": {"test_system": "40S ribosomal subunit, Rps5-R148E;eIF1;eIF1A;eIF2 with eIF2beta-S264Y (SUI3-2)", "assay": "EMSA kinetics (dissociation)", "details": "methionylated; T7 transcript; 30 mM Hepes-KOH pH 7.4, 100 mM KOAc, 3 mM Mg(OAc)2, 2 mM DTT, 26°C; 1 nM [35S]-Met-tRNAi, 200-250 nM eIF2, 1 uM eIF1 and eIF1A, 100 uM GDPNP (Kd assays), mRNA …"}, "[6]": {"test_system": "40S ribosomal subunit, WT Rps5;eIF1;eIF1A;eIF2 with eIF2beta-S264Y (SUI3-2)", "assay": "EMSA kinetics (dissociation)", "details": "methionylated; T7 transcript; 30 mM Hepes-KOH pH 7.4, 100 mM KOAc, 3 mM Mg(OAc)2, 2 mM DTT, 26°C; 1 nM [35S]-Met-tRNAi, 200-250 nM eIF2, 1 uM eIF1 and eIF1A, 100 uM GDPNP (Kd assays), mRNA …"}, "[7]": {"test_system": "40S ribosomal subunit, Rps5-E144R;eIF1;eIF1A;eIF2 WT", "assay": "EMSA kinetics (Kd = koff/kon)", "details": "methionylated; T7 transcript; 30 mM Hepes-KOH pH 7.4, 100 mM KOAc, 3 mM Mg(OAc)2, 2 mM DTT, 26°C; 1 nM [35S]-Met-tRNAi, 200-250 nM eIF2, 1 uM eIF1 and eIF1A, 100 uM GDPNP (Kd assays), mRNA …"}, "[8]": {"biological_target": "40S·eIF1·eIF1A complex assembled with Rps5-R148E mutant 40S subunits (yeast (S. cerevisiae), UniProt P26783 1-225; P32911 1-108; P38912 1-153, R148E)"}}, "data": [{"molecule": "initiator Met-tRNAi", "values": [{"measurement": "Kd", "setting": "[1]", "value": "< 1", "unit": "nM"}, {"measurement": "Kd", "setting": "[2]", "value": "< 1", "unit": "nM"}, {"measurement": "Kd", "setting": "[3]", "value": "< 1", "unit": "nM"}, {"measurement": "binding signal (fold higher koff than WT 40S)", "setting": "[4]", "value": 2}, {"measurement": "binding signal (fold higher koff than WT 40S)", "setting": "[5]", "value": 4}, {"measurement": "binding signal (fold lower koff than with WT eIF2)", "setting": "[6]", "value": 3}, {"measurement": "binding signal (fold lower affinity than WT 40S)", "setting": "[7]", "value": 40}]}, {"molecule": "B1", "values": [{"measurement": "Kd", "setting": "[8]", "value": 101, "unit": "nM"}]}]}
